Measurements reported in patent US20150344570A1 (published 2015).
Residue numbers refer to the chain shown, from its start. Names and notes keep the numbering of the source. Read-outs that look alike come from different tables or passages of the source. Blank lines part the entries; values can stand above or below the binder they belong to.

Key:
FcγRIIIa = target: T1, FcγRIIIa (human, UniProt P08637 17-208); test: SPR (Biacore); KD of GpH7-TA7/GpH7-B78/GpL16-k0 for FcγRIIIa divided by the KD of this antibody
T1 construct: extracellular domain; Soluble extracellular domain with a C-terminal His tag, expressed in FreeStyle293 cells and used as the analyte in Biacore; also called FcgRIIIa; CD16A; not shown: His tag attached to the C terminus
T1 sequence (P08637 17-208): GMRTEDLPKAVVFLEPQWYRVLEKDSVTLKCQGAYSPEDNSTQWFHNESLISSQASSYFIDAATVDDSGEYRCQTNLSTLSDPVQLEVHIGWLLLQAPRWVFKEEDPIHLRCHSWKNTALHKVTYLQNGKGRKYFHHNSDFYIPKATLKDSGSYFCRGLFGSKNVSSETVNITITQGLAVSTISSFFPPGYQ
Method: Then, K334G was also assessed in the same manner. GpH7-TA40 (SEQ ID NO: 47) resulting from the introduction of K334G into GpH7-TA7 was constructed, and expressed and prepared in combination with GpH7-B78 according to the method described in Reference Example 1. Furthermore, GpH7-TA50 (SEQ ID NO: 48) resulting from the introduction of K334G into GpH7-B78 was constructed, and expressed and prepared in combination with GpH7-TA7 according to the method described in Reference Example 1. To assess the effect of combinations with K334G, the prepared antibodies were compared for the FcγRIIIa binding according to the method described in Reference Example 2 (Table 18).
Analysis of interaction between objective antibody and the FcγR was carried out using Biacore T100 (GE Healthcare). HBS-EP+ (GE Healthcare) was used as the running buffer, and the measurement temperature was set to 25° C. Chips produced by immobilizing the antigen peptide by the amine coupling method to a Series S Sencor Chip CM5 (GE Healthcare), or alternatively, chips produced by allowing preliminarily biotinylated antigen peptides to interact with and immobilize onto a Series S Sensor Chip SA (certified) (GE Healthcare) were used. Antibodies of interest were captured onto an antigen peptide-immobilized chip, and allowed to interact to each FcγR diluted with running buffer. […]

FcγRIa = FcγRIa (human, UniProt P12314 16-292); test: SPR (Biacore), relative binding
Chain of FcγRIa (P12314 16-292): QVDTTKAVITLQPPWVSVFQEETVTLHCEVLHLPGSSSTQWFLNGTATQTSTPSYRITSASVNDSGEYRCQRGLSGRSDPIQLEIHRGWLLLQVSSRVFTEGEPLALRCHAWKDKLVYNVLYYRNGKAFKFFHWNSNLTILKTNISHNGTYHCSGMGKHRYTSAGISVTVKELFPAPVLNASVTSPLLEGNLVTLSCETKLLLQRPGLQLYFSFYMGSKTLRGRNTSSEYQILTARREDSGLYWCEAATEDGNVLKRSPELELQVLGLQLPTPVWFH

FcgRIIa R [1] = target: T2, FcgRIIa R (human, UniProt P12318 34-217); test: SPR (Biacore), antibody captured, FcgR as analyte
T2 construct: extracellular domain; also called FcγRIIa R; FcγRIIa type R
T2 sequence (looked up): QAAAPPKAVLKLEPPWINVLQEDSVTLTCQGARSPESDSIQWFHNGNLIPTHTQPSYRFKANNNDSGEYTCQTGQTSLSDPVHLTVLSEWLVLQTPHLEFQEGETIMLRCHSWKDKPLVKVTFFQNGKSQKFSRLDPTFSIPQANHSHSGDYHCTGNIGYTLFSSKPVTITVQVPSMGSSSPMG
Method: (§1) Then, H240-Hl136 (SEQ ID NO: 97) resulting from introduction of L234Y/L235Y/G236W/H268D/S298A/A327D into H240-Hl033 and H240-Kn133 (SEQ ID NO: 98) resulting from introduction of D270E/K326D/A330K/K334E into H240-Kn033 were constructed according to the method described in Reference Example 1.
(§2) Analysis of interaction between objective antibody and the FcγR was carried out using Biacore T100 (GE Healthcare), Biacore T200, Biacore A100, and Biacore 4000. HBS-EP+ (GE Healthcare) was used as the running buffer, and the measurement temperature was set to 25° C. Chips produced by immobilizing the antigen peptide by the amine coupling method to a Series S sensor Chip CM5 (GE Healthcare), chips produced by allowing preliminarily biotinylated antigen peptides to interact with and immobilize onto a Series S Sensor Chip SA (certified) (GE Healthcare), chips produced by immobilizing Protein L (ACTIGEN, BioVision) to Series S Sencor Chip CM5 (GE Healthcare), or chips produced by immobilizing Protein A/G (Thermo Scientific) to Series S Sencor Chip CM5 (GE Healthcare) were used. Antibodies of interest were captured onto these chips, and allowed to interact to each FcγR diluted with running buffer.

FcgRIIIa V [2] = target: T3, FcgRIIIa V (human, UniProt P08637 17-208); test: SPR (Biacore), antibody captured, FcgR as analyte
T3 construct: extracellular domain; polymorphic site made after J. Clin. Invest; also called FcγRIIIa V
T3 sequence (P08637 17-208 F176V limits assumed): as the sequence (P08637 17-208) above, with F160V counted along it
Method: as §1, §2

FcgRIIa H [3] = target: T4, FcgRIIa H (human, UniProt P12318 34-217); test: SPR (Biacore), antibody captured, FcgR as analyte
T4 construct: extracellular domain; also called FcγRIIa H; FcγRIIa type H
T4 sequence (looked up): T2 sequence (looked up) with R134H
Method: as §1, §2

FcgRIIIa F [4] = target: T5, FcgRIIIa F (human, UniProt P08637 17-208); test: SPR (Biacore), antibody captured, FcgR as analyte
T5 construct: extracellular domain; polymorphic site made after J. Clin. Invest; also called FcγRIIIa F
T5 sequence (P08637 17-208): as the sequence (P08637 17-208) above
Method: as §1, §2

FcgRIIa R [5] = target: T2, FcgRIIa R; test: SPR (Biacore), antibody captured, FcgR as analyte; remark: listed apart in the source
Method: (§3) Specifically, H240-Kn120 (SEQ ID NO: 99) resulting from introduction of S239M into H240-Kn067 and H240-Kn126 (SEQ ID NO: 100) resulting from introduction of Y235Q into H240-Kn120 were prepared according to the method described in Reference Example 1. […] Those described above were assayed for the binding to each FcgR according to the method described in Reference Example 8.
as §2, with “buffer. To regenerate and repeatedly use the chip, the antibodies captured onto the chip were washed off by reacting 10 mM glycine-HCl, pH 1.5.” for “buffer.”

FcgRIIIa V [6] = target: T3, FcgRIIIa V; test: SPR (Biacore), antibody captured, FcgR as analyte; remark: listed apart in the source
Method: as §3
as §2, with “buffer. To regenerate and repeatedly use the chip, the antibodies captured onto the chip were washed off by reacting 10 mM glycine-HCl, pH 1.5.” for “buffer.”

FcgRIIb = target: T6, FcgRIIb (human, UniProt P31994 43-217); test: SPR (Biacore), antibody captured, FcgR as analyte
T6 construct: extracellular domain; also called FcγRIIb; CD32B
T6 sequence (looked up): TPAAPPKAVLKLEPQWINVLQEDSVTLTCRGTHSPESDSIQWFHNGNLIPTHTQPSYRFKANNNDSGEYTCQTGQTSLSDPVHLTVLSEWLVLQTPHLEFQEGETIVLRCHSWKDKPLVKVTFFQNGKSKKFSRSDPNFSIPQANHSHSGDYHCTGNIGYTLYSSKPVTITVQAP
Method: as §3
as §2, with “buffer. To regenerate and repeatedly use the chip, the antibodies captured onto the chip were washed off by reacting 10 mM glycine-HCl, pH 1.5.” for “buffer.”

FcgRIIa H [7] = target: T4, FcgRIIa H; test: SPR (Biacore), antibody captured, FcgR as analyte; remark: listed apart in the source
Method: as §3
as §2, with “buffer. To regenerate and repeatedly use the chip, the antibodies captured onto the chip were washed off by reacting 10 mM glycine-HCl, pH 1.5.” for “buffer.”

FcgRIIIa F [8] = target: T5, FcgRIIIa F; test: SPR (Biacore), antibody captured, FcgR as analyte; remark: listed apart in the source
Method: as §3
as §2, with “buffer. To regenerate and repeatedly use the chip, the antibodies captured onto the chip were washed off by reacting 10 mM glycine-HCl, pH 1.5.” for “buffer.”

FcgRIa = target: T7, FcgRIa (human, UniProt P12314 16-292); test: SPR (Biacore), antibody captured, FcgR as analyte
T7 construct: extracellular domain; also called FcγRIa; FcγRI
T7 sequence (P12314 16-292): as the sequence (P12314 16-292) above
Method: as §3
as §2, with “buffer. To regenerate and repeatedly use the chip, the antibodies captured onto the chip were washed off by reacting 10 mM glycine-HCl, pH 1.5.” for “buffer.”

B3: GpH7-B14/GpL16-k0 (antibody, human IgG1, kappa)
heavy: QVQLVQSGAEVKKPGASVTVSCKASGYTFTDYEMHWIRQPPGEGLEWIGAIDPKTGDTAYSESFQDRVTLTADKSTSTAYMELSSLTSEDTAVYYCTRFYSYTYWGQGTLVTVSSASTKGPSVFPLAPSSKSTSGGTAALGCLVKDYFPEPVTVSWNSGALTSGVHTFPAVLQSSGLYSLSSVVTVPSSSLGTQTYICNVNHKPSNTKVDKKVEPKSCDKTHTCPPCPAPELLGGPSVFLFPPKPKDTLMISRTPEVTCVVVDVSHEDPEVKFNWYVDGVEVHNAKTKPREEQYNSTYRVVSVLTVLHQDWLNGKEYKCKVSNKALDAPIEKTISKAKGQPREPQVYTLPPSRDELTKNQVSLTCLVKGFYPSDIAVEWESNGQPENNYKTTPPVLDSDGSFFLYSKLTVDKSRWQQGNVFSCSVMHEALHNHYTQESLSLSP
light: DIVMTQSPLSLPVTPGEPASISCQASESLVHSNRNTYLHWYLQKPGQSPQLLIYKVSNRFSGVPDRFSGSGSGTDFTLKISRVEAEDVGVYYCSQNTHVPPTFGQGTKVEIERTVAAPSVFIFPPSDEQLKSGTASVVCLLNNFYPREAKVQWKVDNALQSGNSQESVTEQDSKDSTYSLSSTLTLSKADYEKHKVYACEVTHQGLSSPVTKSFNRGEC
notes: P329D in both H chains
FcγRIa-binding activity relative to GpH7-A5/GpH7-B3/GpL16-k0 (FcγRIa): ≤ 0.2 fold

B4: H240-Kn067/H240-Hl068/L73-k0 (antibody, human IgG1, kappa)
heavy 1: QDQLVQSGAEVKKPGASVKVSCKASGFNIKDTYIQWVRQAPGQGLEWMGRIDPLRKQTKYREKFEGRVTITADTSTNTAYMELSSLRSEDTAVYYCVRSGREFDYWGQGTLVTVSSASTKGPSVFPLAPSSKSTSGGTAALGCLVKDYFPEPVTVSWNSGALTSGVHTFPAVLQSSGLYSLSSVVTVPSSSLGTQTYICNVNHKPSNTKVDKKVEPKSCDKTHTCPPCPAPEYYWGPSVFLFPPKPKDTLMISRTPEVTCVVVDVSDEDPEVKFNWYVDGVEVHNAKTKPREEQYNATYRVVSVLTVLHQDWLNGKEYKCKVSNKDLPAPIEKTISKAKGQPREPQVCTLPPSRDELTKNQVSLWCLVKGFYPSDIAVEWESNGQPENNYKTTPPVLDSDGSFFLYSKLTVDKSRWQQGNVFSCSVMHEALHNHYTQKSLSLSP
heavy 2: QDQLVQSGAEVKKPGASVKVSCKASGFNIKDTYIQWVRQAPGQGLEWMGRIDPLRKQTKYREKFEGRVTITADTSTNTAYMELSSLRSEDTAVYYCVRSGREFDYWGQGTLVTVSSASTKGPSVFPLAPSSKSTSGGTAALGCLVKDYFPEPVTVSWNSGALTSGVHTFPAVLQSSGLYSLSSVVTVPSSSLGTQTYICNVNHKPSNTKVDKKVEPKSCDKTHTCPPCPAPELLGGPSVFLFPPKPKDTLMISRTPEVTCVVVDVSHEEPEVKFNWYVDGVEVHNAKTKPREEQYNSTYRVVSVLTVLHQDWLNGKEYKCKVSNDALPKPIEETISKAKGQPREPQVYTLPPSRCELTKNQVSLSCAVKGFYPSDIAVEWESNGQPENNYKTTPPVLDSDGSFFLVSKLTVDKSRWQQGNVFSCSVMHEALHNHYTQKSLSLSP
light: DIQMTQSPSSLSASVGDRVTITCRASQDIHKYIAWYQQKPGQAPRLLIQYTSTLQPGVPSRFSGSGSGTDYTFTISSLQPEDIATYYCLQYEQLRTFGGGTKVEIKRTVAAPSVFIFPPSDEQLKSGTASVVCLLNNFYPREAKVQWKVDNALQSGNSQESVTEQDSKDSTYSLSSTLTLSKADYEKHKVYACEVTHQGLSSPVTKSFNRGEC
notes: Heterodimerized: L234Y/L235Y/G236W/H268D/S298A/A327D in the knob chain, D270E/K326D/A330K/K334E in the hole chain
Kd (FcgRIIa R [1]): 49 nM | Kd (FcgRIIIa V [2]): 1.6 nM | Kd (FcgRIIa H [3]): 94 nM | Kd (FcgRIIIa F [4]): 7.1 nM | Kd (FcgRIIa R [5]): 49 nM | Kd (FcgRIIIa V [6]): 1.6 nM | Kd (FcgRIIb): 370 nM | Kd (FcgRIIa H [7]): 94 nM | Kd (FcgRIIIa F [8]): 7.1 nM | Kd (FcgRIa): 0.26 nM

B5: H240-Kn126/H240-Hl068/L73-k0 (antibody, human IgG1, kappa)
heavy 1: B4 heavy 1 with Y234Q, S238M
heavy 2: B4 heavy 2
light: B4 light
notes: H240-Kn126: Y235Q introduced into H240-Kn120
Kd (FcgRIIa R [5]): 76 nM | Kd (FcgRIIIa V [6]): 0.64 nM | Kd (FcgRIIb): 520 nM | Kd (FcgRIIa H [7]): 170 nM | Kd (FcgRIIIa F [8]): 3.7 nM | Kd (FcgRIa): 0.4 nM

The remaining lines, values ahead:

KD ratio (FcγRIIIa): 0.5
B1: GpH7-TA40/GpH7-B78/GpL16-k0 (antibody, human IgG1, kappa)
heavy 1: QVQLVQSGAEVKKPGASVTVSCKASGYTFTDYEMHWIRQPPGEGLEWIGAIDPKTGDTAYSESFQDRVTLTADKSTSTAYMELSSLTSEDTAVYYCTRFYSYTYWGQGTLVTVSSASTKGPSVFPLAPSSKSTSGGTAALGCLVKDYFPEPVTVSWNSGALTSGVHTFPAVLQSSGLYSLSSVVTVPSSSLGTQTYICNVNHKPSNTKVDKKVEPKSCDKTHTCPPCPAPEYLWGPSVFLFPPKPKDTLMISRTPEVTCVVVDVSHEDPEVKFNWYVDGVEVHNAKTKPREEQYNATYRVVSVLTVLHQDWLNGKEYKCKVSNKALPAPIEGTISKAKGQPREPQVYTLPPSRKELTKNQVSLTCLVKGFYPSDIAVEWESNGQPENNYKTTPPVLDSDGSFFLYSKLTVDKSRWQQGNVFSCSVMHEALHNRYTQKSLSLSP
heavy 2: B1 heavy 1 with Y232L, W234G, S237D, A296S, A328L, I330E, G332K, K354D, R433H, K437E
light: B3 light
notes: Heterodimerized anti-glypican-3 IgG1 antibody; K334G is in the same H chain as L234Y/G236W/S298A; also called TA40/B78

FcγRIa-binding activity relative to GpH7-A5/GpH7-B3/GpL16-k0 (FcγRIa): ≤ 0.2 fold
B2: GpH7-B15/GpL16-k0 (antibody, human IgG1, kappa)
heavy: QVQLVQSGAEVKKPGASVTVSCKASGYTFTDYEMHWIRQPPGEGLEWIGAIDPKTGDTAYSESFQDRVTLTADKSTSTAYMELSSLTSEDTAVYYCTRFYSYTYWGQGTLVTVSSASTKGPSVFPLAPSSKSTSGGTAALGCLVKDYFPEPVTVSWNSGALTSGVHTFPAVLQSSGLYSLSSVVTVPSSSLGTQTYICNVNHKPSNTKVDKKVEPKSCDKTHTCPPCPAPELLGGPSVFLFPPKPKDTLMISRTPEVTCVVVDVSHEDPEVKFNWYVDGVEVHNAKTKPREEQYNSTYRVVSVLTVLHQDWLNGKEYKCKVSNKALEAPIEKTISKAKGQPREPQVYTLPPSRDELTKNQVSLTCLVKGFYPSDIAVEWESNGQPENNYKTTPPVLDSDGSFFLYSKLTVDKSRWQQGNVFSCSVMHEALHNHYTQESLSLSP
light: B3 light
notes: P329E in both H chains
